The record followed here is patent US8431111B2, “Peptide imaging agents” (GE Healthcare Limited, priority 2007, dated 2013).

This series can be described thus: Limited acute dose toxicity study in male rats. Format: in vivo, rat. The procedure: A limited acute dose toxicity study was conducted to investigate the tolerance of Compound 6 at 100 times the preclinical imaging dose (50 nmol/kg body weight). The compound was injected intravenously in male rats, and the animals were sacrificed at 1, 14, 21 and 28 days post injection (p.i.). At necropsy, the major organs were inspected for gross pathology, and the kidneys were taken into neutral buffered formalin for subsequent histomorphological evaluation. A weak blue colouration of the skin and a moderate blue colouration of the urine were observed immediately after injection, which disappeared within 1 day p.i. […] The other minor changes seen were incidental and common in young adult laboratory rats. Strong fluorescence staining of blood vessels in the kidney was observed on day 1 p.i.

Structures are written as SMILES. Where a SMILES comes first, the peptide text is derived from it. Bridges are numbered along the chain shown (N, C = ends). The star is where a group is joined. X1 = CC1=CC(C)(C)N(CCCS(=O)(=O)O)c2cc3c(cc21)/C(=C/C=C/C1=[N+](CCCS(=O)(=O)O)c2ccc(S(=O)(=O)[O-])cc2C1(C)CCCC(=O)*)C=C(C(C)(C)C)O3

Regarding `CC(=O)N[C@@H](C)C(=O)NCC(=O)N[C@@H](CO)C(=O)N[C@H]1CSSC[C@@H](C(=O)N[C@@H](Cc2ccc(O)cc2)C(=O)N[C@@H](CCC(=O)O)C(=O)N[C@H](C(=O)N[C@@H](CCC(=O)O)C(=O)NCC(=O)N[C@H](C(=O)NCC(=O)NCC(=O)NCC(=O)N[C@@H](CCCCNC(=O)CCCC2(C)C(/C=C/C=C3\C=C(C(C)(C)C)Oc4cc5c(cc43)C(C)=CC(C)(C)N5CCCS(=O)(=O)O)=[N+](CCCS(=O)(=O)O)c3ccc(S(=O)(=O)[O-])cc32)C(N)=O)[C@@H](C)O)[C@@H](C)O)NC(=O)[C@H](Cc2c[nH]c3ccccc23)NC(=O)[C@@H]2CSSC[C@H](NC(=O)[C@H](Cc3ccc(O)cc3)NC1=O)C(=O)N[C@@H](CO)C(=O)NCC(=O)N1CCC[C@H]1C(=O)N1CCC[C@H]1C(=O)N[C@@H](CCCNC(=N)N)C(=O)N[C@@H](Cc1ccccc1)C(=O)N[C@@H](CCC(=O)O)C(=O)N2` (stereo partly drawn) [Compound 6] (Ac-AGSCYCSGPPRFECWCYETEGTGGGK(X1)-NH2; disulfide 4-16, 6-14), under “100 times the anticipated clinical dose”, the “Tolerance of single intravenous administration” value is “well tolerated and without any drug substance related adverse effects”. Moreover, the “Gross appearance of the kidneys at necropsy” value (day 1 p.i.) is “diffusely green”. In addition, the “Time until blue colouration of skin and urine disappeared” value (i.v., weak blue colouration of skin, moderate of urine, immediately after injection) is at most 1 day p.i.
